US20240010747A1, “ANTI-MRP4 (ENCODED BY ABCC4 GENE) ANTIBODIES AND USES THEREOF” (Kenjockety Biotechnology, Inc., priority 2020, published 2024)

T1: human ABCC4 (Homo sapiens, UniProt O15439)
T1 construct: expressed in transfected cells
T1 sequence (O15439 1-1325): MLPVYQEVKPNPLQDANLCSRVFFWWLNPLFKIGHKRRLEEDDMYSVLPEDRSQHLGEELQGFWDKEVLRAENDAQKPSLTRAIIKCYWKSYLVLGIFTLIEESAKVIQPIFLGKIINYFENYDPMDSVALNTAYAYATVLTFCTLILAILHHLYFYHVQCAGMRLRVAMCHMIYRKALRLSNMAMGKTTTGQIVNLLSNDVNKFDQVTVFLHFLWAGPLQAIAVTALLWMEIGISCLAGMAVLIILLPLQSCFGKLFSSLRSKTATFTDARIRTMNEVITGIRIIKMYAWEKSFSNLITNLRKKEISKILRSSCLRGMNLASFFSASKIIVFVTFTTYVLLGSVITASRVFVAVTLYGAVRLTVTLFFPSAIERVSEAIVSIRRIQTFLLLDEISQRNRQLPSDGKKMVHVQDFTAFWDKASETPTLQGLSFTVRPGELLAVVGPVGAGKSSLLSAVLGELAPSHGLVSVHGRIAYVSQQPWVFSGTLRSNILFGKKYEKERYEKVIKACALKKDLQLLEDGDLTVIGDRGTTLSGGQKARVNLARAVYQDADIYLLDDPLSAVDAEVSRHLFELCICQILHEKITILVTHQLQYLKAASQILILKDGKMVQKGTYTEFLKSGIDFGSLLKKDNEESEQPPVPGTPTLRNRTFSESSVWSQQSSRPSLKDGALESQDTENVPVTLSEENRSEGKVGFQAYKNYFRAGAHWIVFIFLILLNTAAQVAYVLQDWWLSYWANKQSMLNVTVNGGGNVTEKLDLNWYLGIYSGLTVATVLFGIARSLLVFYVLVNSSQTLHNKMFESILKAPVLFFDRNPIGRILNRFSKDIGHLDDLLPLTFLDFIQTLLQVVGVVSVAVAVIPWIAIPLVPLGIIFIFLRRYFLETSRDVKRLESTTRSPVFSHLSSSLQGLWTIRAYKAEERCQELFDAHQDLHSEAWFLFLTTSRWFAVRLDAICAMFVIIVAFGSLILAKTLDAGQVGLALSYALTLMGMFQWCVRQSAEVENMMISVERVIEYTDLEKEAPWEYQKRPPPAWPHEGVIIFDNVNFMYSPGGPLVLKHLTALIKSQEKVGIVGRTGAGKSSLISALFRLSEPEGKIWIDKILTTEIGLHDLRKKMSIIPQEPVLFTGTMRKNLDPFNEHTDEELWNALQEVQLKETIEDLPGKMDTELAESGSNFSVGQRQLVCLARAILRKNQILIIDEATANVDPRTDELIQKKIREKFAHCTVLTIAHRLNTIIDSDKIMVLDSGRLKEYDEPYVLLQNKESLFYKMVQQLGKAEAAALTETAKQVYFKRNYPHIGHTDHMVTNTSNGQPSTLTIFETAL

T2: human ABCC4 (human, UniProt O15439 1-1325)
T2 construct: Expressed on murine C6 cells stably transfected with human ABCC4 cDNA with C-terminal FLAG tag; also called MRP4; Multidrug resistance protein 4; not shown: C-terminal fused FLAG tag
T2 sequence: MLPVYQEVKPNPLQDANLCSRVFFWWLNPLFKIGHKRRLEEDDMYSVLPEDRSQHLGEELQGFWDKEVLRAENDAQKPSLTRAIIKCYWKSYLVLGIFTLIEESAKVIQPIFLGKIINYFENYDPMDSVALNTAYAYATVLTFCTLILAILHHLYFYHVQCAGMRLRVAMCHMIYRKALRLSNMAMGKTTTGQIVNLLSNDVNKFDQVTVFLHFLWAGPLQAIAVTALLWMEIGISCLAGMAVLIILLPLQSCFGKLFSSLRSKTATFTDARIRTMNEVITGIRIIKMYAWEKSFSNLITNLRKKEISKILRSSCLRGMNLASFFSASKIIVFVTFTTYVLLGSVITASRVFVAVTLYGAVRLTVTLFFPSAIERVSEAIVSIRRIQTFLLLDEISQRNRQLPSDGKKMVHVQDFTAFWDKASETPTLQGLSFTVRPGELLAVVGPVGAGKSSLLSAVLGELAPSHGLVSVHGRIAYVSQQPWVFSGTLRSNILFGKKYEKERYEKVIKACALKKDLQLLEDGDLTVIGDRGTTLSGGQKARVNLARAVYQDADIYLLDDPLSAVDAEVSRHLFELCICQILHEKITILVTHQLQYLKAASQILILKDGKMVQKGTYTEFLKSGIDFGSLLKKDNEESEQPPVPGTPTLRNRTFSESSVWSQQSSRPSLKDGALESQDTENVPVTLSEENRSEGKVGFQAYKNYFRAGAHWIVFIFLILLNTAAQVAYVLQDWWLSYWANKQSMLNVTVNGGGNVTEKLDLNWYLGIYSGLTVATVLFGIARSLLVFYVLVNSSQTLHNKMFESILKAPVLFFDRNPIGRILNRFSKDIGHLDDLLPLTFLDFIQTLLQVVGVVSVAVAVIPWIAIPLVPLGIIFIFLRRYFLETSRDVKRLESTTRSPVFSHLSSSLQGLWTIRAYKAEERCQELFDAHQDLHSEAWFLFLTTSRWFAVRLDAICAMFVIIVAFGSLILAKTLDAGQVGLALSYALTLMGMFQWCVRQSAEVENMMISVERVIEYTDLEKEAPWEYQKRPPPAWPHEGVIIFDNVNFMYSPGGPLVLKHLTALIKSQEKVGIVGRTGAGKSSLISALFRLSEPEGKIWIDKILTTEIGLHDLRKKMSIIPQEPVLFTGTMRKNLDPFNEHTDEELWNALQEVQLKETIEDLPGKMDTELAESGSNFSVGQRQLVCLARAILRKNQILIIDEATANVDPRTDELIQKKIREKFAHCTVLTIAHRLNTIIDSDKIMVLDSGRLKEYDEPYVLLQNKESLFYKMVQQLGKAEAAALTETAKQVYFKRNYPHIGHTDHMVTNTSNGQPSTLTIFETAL


Columns and labels:
[1] = test system: cynomolgus ABCC4; assay: Flow cytometry (FACS) binding to C6 cells stably transfected to express cynomolgus ABCC4 (different experiment, different C6.cC4 cell line, Table 4); parameters: key to Cynomolgus ABCC4 binding: Negative (−)=Rmax (MFI) below background level; Positive (+)=MFI>3× background level; details: different C6.cC4 cell line, C6 cells stably transfected to express cynomolgus ABCC4, FACS; Table 4
Procedure, shortened: (§1)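 Murine C6 cells stably expressing FLAG-tagged human or cynomolgus ABCC4 incubated 30 min on ice with antibodies, either 5 ug/mL or serially diluted from 100 ug/mL, in PBS+2% FBS+0.02% azide. Detection with PE anti-human IgG F(ab′)2 by flow cytometry; EC50 at half-maximal MFI; negative below background, positive >3× background.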

[2] = target: T1, human ABCC4; assay: Flow cytometry (FACS) binding to C6 cells stably transfected to express human ABCC4 (different experiment, Table 4); details: C6 cells stably transfected to express human ABCC4, FACS; different experiment, Table 4
Procedure, shortened: as §1

[3] = target: T2, human ABCC4; assay: FACS, C6 cells stably expressing human ABCC4; + = MFI>3x background
Experimental: Antibody binding to cells was evaluated by flow cytometry. Murine C6 cells stably transfected to express human or cynomolgus ABCC4 were washed once in flow cytometry buffer (PBS+2% FBS+0.02% sodium azide), resuspended at 2×10\hat{ }6 cells/mL in flow cytometry buffer, and dispensed into 96-well microtiter plates at 0.1 mL/well. Recombinant antibodies were added to cells at 5 ug/mL for initial binding confirmation, or serially diluted from 100 ug/mL in flow cytometry buffer. After incubating cells on ice for 30 min, cells were washed twice with flow cytometry buffer. Bound antibody was detected with PE-labeled F(ab′)₂ fragment goat anti-human IgG (Jackson ImmunoResearch) and evaluated on an Attune N×T flow cytometer. EC50 is calculated to be the concentration of antibody that gives half maximal response.

Human ABCC4 binding [2] | binding result [3] | Molecule | Cynomolgus ABCC4 binding [1]
+ (Positive (+)=MFI>3× background level) | binds | C4.1139 (antibody, V domains shown) VH: EVQLVESDGGLVQPGRSLKLSCAASGFTFSDYYMAWVRQAPTKGLYWVASISYDGSTTYYRDSVKGRFTISRDNAKSTLYLQMGSLRSEDTATYYCARLSIRYKGVMDAWGRGASVTVSS VL: DVVMTQSPSNLAASPGESVSINCKASKSIGKFLAWYQQKPGRPNKLLIYSGSTLQSGTPSRFSGSGSGTDFTLTIRNLEPGDFGLYYCQHHIEYPPTFGPGTKLELK | −
+ (Positive (+)=MFI>3× background level) | binds | C4.1059 (antibody, V domains shown) VH: QVQLLQSGAALVKPGASVKMSCKPSGYTFTDYWVSWVKQSHGKSLEWIGEIYPNNGATNFNEKFKGKATLTVDKSTSTAYMELSRLTSEDSAIYYCPSRKYGYNWNFDYWGQGTMVTVSS VL: DIVLTQSPALAVSLGQRATISCWASQSVSISRYNLMHWYQQKPGQQPKLLIYRASNLASGIPARFSGSGSGTDFTLTINPVQADDIATYYCQQSGESPWTFGGGTKLELK | −
+ (Positive (+)=MFI>3× background level) | binds | C4.1148 (antibody, V domains shown) VH: EVQLVESDGGLVQPGRSLKLSCAASGFTFSDYYMAWVRQAPPKGLEWVATISYDAFTTYYRDSVKGRFTISRDNAKTILFLQMDSLRSEDTATYYCIRLSTRYKGVMDAWGHGASVTVSS VL: DIQMTQSPSNLAASPGESVSINCKASETIYKYLAWYQQKPGRTNKLLIYSGSTLQSGTPSRFSGSGSGTDFTLTIRNLEPEDFGRYYCQHHVEYPPTFGAGTKLELK | −
